This is an account of results in patent US9878046B2, “Adverse side-effects associated with administration of an anti-hyaluronan agent and methods for ameliorating or preventing the side-effects” (Halozyme, Inc., priority 2010, dated 2018).

Entries after “also recorded” stand apart in the source; their conditions may differ.

A short description of the series: Clinical study (Phase 1-101), musculoskeletal adverse events of PEGPH20.

From the text: The median age of the patients was age 61 (range 56-86) with tumor types including histiocytoma, colorectal, pancreatic, bladder, carcinoid and ovarian. In all cases, the patients entered the program under pain medication related to their presenting condition but not for study drug-related pain.

B1: PEGPH20 (protein)
chain: LNFRAPPVIPNVPFLWAWNAPSEFCLGKFDEPLDMSLFSFIGSPRINATGQGVTIFYVDRLGYYPYIDSITGVTVNGGIPQKISLQDHLDKAKKDITFYMPVDNLGMAVIDWEEWRPTWARNWKPKDVYKNRSIELVQQQNVQLSLTEATEKAKQEFEKAGKDFLVETIKLGKLLRPNHLWGYYLFPDCYNHHYKKPGYNGSCFNVEIKRNDDLSWLWNESTALYPSIYLNTQQSPVAATLYVRNRVREAIRVSKIPDAKSPLPVFAYTRIVFTDQVLKFLSQDELVYTFGETVALGASGIVIWGTLSIMRSMKSCLLLDNYMETILNPYIINVTLAAKMCSQVLCQEQGVCIRKNWNSSDYLHLNPDNFAIQLEKGGKFTVRGKPTLEDLEQFSEKFYCSCYSTLSCKEKADVKDTDAVDVCIADGVCIDAFLKPPMETEEPQIFY
Turning to B1, the dose-limiting toxicity entry reads like this: (0.5 μg/kg IV every 21 days) “No dose-limiting toxicities”; (0.5 μg/kg IV twice weekly) “met dose-limiting toxicity”; (0.75 μg/kg IV every 21 days, Grade 3 event after first cycle) “not considered a dose-limiting toxicity”; (1.0 μg/kg IV every 21 days) “no dose-limiting toxicities”; (1.5 μg/kg IV every 21 days, one patient) “no dose-limiting toxicities”. The “musculoskeletal side effects, severity” value is on record as “intermittent Grade 1 or transient Grade 2” (0.5 μg/kg IV every 21 days, three patients); “intermittent Grade 1 or transient Grade 2; also recorded: Grade 1; also recorded: Grade 3; also recorded: Grade 2” (0.75 μg/kg IV every 21 days, cohort and individual patients). The “severity of muscle/joint pain” value (0.5 μg/kg IV twice weekly, after 2 doses) is recorded as “Grade 3” and the “severity of muscle/joint pain” value (single IV dose 0.05 mg/kg, individual patients) is on record as “Grade 3”. In addition, the “musculoskeletal pain leading to discontinuation (summary)” value reads like this: (0.5 μg/kg in a 21 day cycle) “Grade 3”; (50.0 μg/kg dose twice weekly, individual patients) “Grade 4; also recorded: Grade 3”. Also, the “musculoskeletal symptoms, severity” value (1.0 μg/kg IV every 21 days, one of three patients) is reported as “Grade 1”. Further, the duration of pain entry (single IV dose 0.05 mg/kg) is “more than 9 days”. In addition, under “single IV dose 0.05 mg/kg”, the “onset of stiffness and muscle and joint pain after dosing” value was 6 to 10 h.
